A word on the Kd: it is the constant that tells how readily two partners part at equilibrium.

Test [1] deals with T1, recombinant human PCSK9 with a histidine (His)8 C-terminal tag (human, UniProt Q8NBP7 31-692, biotinylated in vitro (EZ-link Sulfo-NHS-biotinylation kit) where the assay names biotinylated PCSK9). Briefly: cell-based or functional assay.
Test [2] concerns the target T1, recombinant human PCSK9 with a …. Briefly: biolayer interferometry (Octet RED 384), EGF-Fc on Fc biosensor, PCSK9 0-500 nM, 1 mM CaCl2, steady state fit; biolayer interferometry, steady state, 1 mM CaCl2. A general note: BLI is a label-free optical method that tracks binding on a fibre tip over time.
Test [3] shares this target. Briefly: SPR (Biacore 3000), EGF-Fc captured by anti-human Fc, PCSK9 injected, 1 mM CaCl2; SPR, 1 mM Ca^2+.

B1: EGFwt-Fc fusion protein (Fc fusion)
chain: not shown
notes: A single EGF-Fc protein contains two EGF domains; also called EGF-Fc (WT); EGF(A)-Fc; not shown: Fc domain of human IgG1 (C222-K443)
Take B1: the “EC50: concentration that restored LDLR levels on the HepG2 cell surface to 50% of control” value in test [1] was determined as 11000 nM. Also, the results for the Kd in test [2] and in test [3] were 900 nM and 935 nM, respectively.

Values taken from US20140212431A1 (Genentech, published 2014).
